In the RNAGym collection of RNA variant scans (doi:10.1093/molbev/msab373):

B1: Azoarcus group I ribozyme (parent)
chain: GUGCCUUGCGCCGGGAAACCACGCAAGGGAUGGUGUCAAAUUCGGCGAAACCUAAGCGCCCGCCCGGGCGUAUGGCAACGCCGAGCCAAGCUUCGGCGCCUGCGCCGAUGAAGGUGUAGAGACUAGACGGCACCCACCUAAGGCAAACGCUAUGGUGAAGGCAUAGUCCAGGGAGUGGCGAAAGUCACACAAACCGG

Variants of: B1
Assay: reverse-splicing fitness (ratio to wild type); higher = more active; in vitro selection; Mg2+ level not given
Outline: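 An in vitro group I ribozyme library with randomized positions was T7-transcribed and gel-purified. In triplicate, 10 pmol RNA in EPPS pH 7.5 was reacted with 50 pmoles of a 30-nt RNA substrate for 1 h at 37 °C across several added MgCl2 levels (1–48 mM), then stopped with EDTA. Products were reverse transcribed from a substrate-complementary primer, PCR-amplified and sequenced (HiSeq 4000). Fitness is a variant's read proportion after selection over that before, normalised to wild type.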

Row | Variant | reverse-splicing fitness
1 | C82A A111U A120G A145C C150U U176A | 0.0105
2 | C82A A111U A120G A145G C150U C169G U176A | 0.0133
3 | C82A A111U A120G A145G C150U C169G U176C | 0.0178
4 | C82A A111U A120G A145G C150U C169G U176G | 0.00517
5 | C82A A111U A120G A145U C150A C169A | 0.00942
6 | C82A A111U A120G A145U C150A C169G | 0.00859
7 | C82A A111U A120G A145U C150A C169U | 0.0069
8 | C82A A111U A120G A145G C150A C169G U176C | 0.0255
9 | C82A A111U A120G A145G C150A C169G U176G | 0.00589
10 | C82A A111U A120G A145G C150A C169G U176A | 0.0172
11 | C82A A111U A120C C169G U176A | 0.0231
12 | C82A A111U A120C C169G U176G | 0.00706
13 | C82A A111U A120C C169G U176C | 0.0298
14 | C82A A111U A120G A145U C150U U176C | 0.0151
15 | C82A A111U A120G A145U C150U U176G | 0.00672
16 | C82A A111U A120G A145U C150U U176A | 0.0102
17 | C82A A111U A120G A145C | 0.0126
18 | C82A A111U A120G A145G | 0.0152
19 | C82A A111U A120G A145U | 0.0153
20 | C82A A111U A120C C150G C169A | 0.0101
21 | C82A A111U A120C C150G C169G | 0.00832

Row | Variant | reverse-splicing fitness
22 | C82A A111U A120C C150G C169U | 0.0101
23 | C82A A111U A120G A145C C150U C169G U176A | 0.0224
24 | C82A A111U A120G A145C C150U C169G U176G | 0.00608
25 | C82A A111U A120G A145C C150U C169G U176C | 0.0134
26 | C82A A111U A120G A145G C150A C169U U176C | 0.0167
27 | C82A A111U A120G A145G C150A C169U U176A | 0.0197
28 | C82A A111U A120G A145G C150A C169U U176G | 0.0069
29 | C82A A111U A120G A145G C150U C169U U176G | 0.00618
30 | C82A A111U A120G A145G C150U C169U U176A | 0.0181
31 | C82A A111U A120G A145G C150U C169U U176C | 0.0156
32 | C82A A111U A120G A145G C150U U176A | 0.00963
33 | C82A A111U A120G A145G C150U U176C | 0.0178
34 | C82A A111U A120G A145G C150U U176G | 0.00803
35 | C82A A111U A120C C150U C169U U176G | 0.00737
36 | C82A A111U A120C C150U C169U U176A | 0.0156
37 | C82A A111U A120C C150U C169U U176C | 0.0145
38 | C82A A111U A120G A145C C150U | 0.00935
39 | C82A A111U A120G A145C C150A | 0.00759
40 | C82A A111U A120G A145C C150G | 0.00667
41 | C82A A111U A120C C169U U176C | 0.0158
42 | C82A A111U A120C C169U U176G | 0.00659

Row | Variant | reverse-splicing fitness
43 | C82A A111U A120C C169U U176A | 0.0177
44 | C82A A111U A120G C150U U176G | 0.00825
45 | C82A A111U A120G C150U U176C | 0.0178
46 | C82A A111U A120G C150U U176A | 0.0109
47 | C82A A111U A120C C150G C169G U176C | 0.00529
48 | C82A A111U A120C C150G C169G U176G | 0.00574
49 | C82A A111U A120C C150G C169G U176A | 0.00746
50 | C82A A111U A120C U176G | 0.00616
51 | C82A A111U A120C U176A | 0.0152
52 | C82A A111U A120C U176C | 0.0279
53 | C82A A111U A120G A145G C150G C169G U176G | 0.00619
54 | C82A A111U A120G A145G C150G C169G U176C | 0.0107
55 | C82A A111U A120G A145G C150G C169G U176A | 0.0109
56 | C82A A111U A120G C169G U176A | 0.0219
57 | C82A A111U A120G C169G U176G | 0.00439
58 | C82A A111U A120G C169G U176C | 0.0234
59 | C82A A111U A120G A145C C150G C169U U176G | 0.00584
60 | C82A A111U A120G A145C C150G C169U U176A | 0.0132
61 | C82A A111U A120G A145C C150G C169U U176C | 0.0117
62 | C82A A111U A120C C150G C169A U176A | 0.0125
63 | C82A A111U A120C C150G C169A U176G | 0.00717

Row | Variant | reverse-splicing fitness
64 | C82A A111U A120C C150G C169A U176C | 0.0122
65 | C82A A111U A120G C150G C169U U176A | 0.01
66 | C82A A111U A120G C150G C169U U176G | 0.00618
67 | C82A A111U A120G C150G C169U U176C | 0.0145
68 | C82A A111U A120G A145G C169G U176A | 0.021
69 | C82A A111U A120G A145G C169G U176C | 0.0285
70 | C82A A111U A120G A145G C169G U176G | 0.00424
71 | C82A A111U A120C C150U C169G | 0.00831
72 | C82A A111U A120C C150U C169A | 0.0109
73 | C82A A111U A120C C150U C169U | 0.0121
74 | C82A A111U A120C C150U | 0.0206
75 | C82A A111U A120C C150G | 0.00909
76 | C82A A111U A120C C150A | 0.0118
77 | C82A A111U A120G A145G C169A | 0.00997
78 | C82A A111U A120G A145G C169U | 0.00913
79 | C82A A111U A120G A145G C169G | 0.0107
80 | C82A A111U A120G U176A | 0.0127
81 | C82A A111U A120G U176C | 0.0189
82 | C82A A111U A120G U176G | 0.00705
83 | C82A A111U A120G C150A U176C | 0.0188
84 | C82A A111U A120G C150A U176A | 0.0123
